This passage reports shift of the AC50 of cAMP for EPAC1 GEF activity by RanBP2 ZFD (cAMP titration); maximal GEF activity also reduced results from publication PMC12226364.

The target of this assay is GST-EPAC1 (purified recombinant).

With “RanBP2 zinc finger domain (ZFD), 1171-1809 aa (from UniProt P49792 1171-1809) (domain or fragment)”, the shift of the AC50 of cAMP for EPAC1 GEF activity by RanBP2 ZFD (cAMP titration); maximal GEF activity also reduced worked out at 10 fold.
